Laboratory results taken from the Immune Epitope Database (IEDB).

What was measured:
HLA-A*23:01 = experiment: IEDB peptide-MHC binding, purified MHC/direct/fluorescence; filed as Kd, often an IC50 or EC50 that approximates it; ≥ and ≤ were set here for values at or beyond the usual limits of such assays; details: source organism: Salmonella enterica subsp. enterica serovar Typhimurium str. LT2
HLA-A*68:02 = experiment: as above
HLA-B*18:01 = experiment: as above
HLA-A*02:12 = experiment: as above
HLA-A*02:03 = experiment: as above
HLA-B*46:01 [1] = experiment: as above
HLA-A*69:01 [2] = experiment: as above; details: source organism: Salmonella enterica subsp. enterica serovar Typhimurium str. LT2
HLA-A*02:16 = experiment: as above
HLA-B*27:03 [3] = experiment: as above
HLA-B*15:17 = experiment: as above; details: source organism: Salmonella enterica subsp. enterica serovar Typhimurium str. LT2
HLA-B*51:01 [4] = experiment: as above
HLA-A*29:02 = experiment: as above
HLA-A*02:19 = experiment: as above
HLA-A*26:01 = experiment: as above
HLA-A*24:03 = experiment: as above
HLA-B*57:01 [5] = experiment: as above; details: source organism: Salmonella enterica subsp. enterica serovar Typhimurium str. LT2
HLA-B*15:01 [6] = experiment: as above
HLA-A*02:01 [7] = experiment: as above
HLA-A*03:01 [8] = experiment: as above
HLA-A*02:11 = experiment: as above
HLA-C*03:03 = experiment: as above
HLA-B*39:01 [9] = experiment: as above; details: source organism: Mycobacterium tuberculosis str. Haarlem
HLA-B*58:01 = experiment: IEDB peptide-MHC binding, purified MHC/competitive/fluorescence; filed as Kd, often an IC50 or EC50 that approximates it; ≥ and ≤ were set here for values at or beyond the usual limits of such assays; details: source organism: Yersinia pestis Nepal516
HLA-B*51:01 [10] = experiment: as above
HLA-A*01:01 [11] = experiment: as above; details: source organism: Yersinia pestis Nepal516
HLA-A*02:01 [12] = experiment: as above
HLA-C*08:02 = experiment: IEDB peptide-MHC binding, purified MHC/direct/fluorescence; filed as Kd, often an IC50 or EC50 that approximates it; ≥ and ≤ were set here for values at or beyond the usual limits of such assays
HLA-B*45:06 = experiment: IEDB peptide-MHC binding, purified MHC/competitive/fluorescence; filed as Kd, often an IC50 or EC50 that approximates it; ≥ and ≤ were set here for values at or beyond the usual limits of such assays
HLA-A*31:01 = experiment: as above; details: source organism: Salmonella enterica subsp. enterica serovar Typhi
HLA-B*83:01 = experiment: as above; details: source organism: Salmonella enterica subsp. enterica serovar Typhi
HLA-C*04:01 = experiment: as above
HLA-A*68:23 = experiment: as above; details: source organism: Salmonella enterica subsp. enterica serovar Typhi
HLA-B*15:01 [13] = experiment: as above; details: source organism: Salmonella enterica subsp. enterica serovar Typhi
HLA-A*03:01 [14] = experiment: as above; details: source organism: Salmonella enterica subsp. enterica serovar Typhi
HLA-B*15:42 = experiment: as above
HLA-B*07:02 = experiment: IEDB peptide-MHC binding, purified MHC/direct/fluorescence; filed as Kd, often an IC50 or EC50 that approximates it; ≥ and ≤ were set here for values at or beyond the usual limits of such assays; details: source organism: Orthohantavirus hantanense
HLA-A*01:01 [15] = experiment: IEDB peptide-MHC binding, purified MHC/competitive/fluorescence; ≥ and ≤ were set here for values at or beyond the usual limits of such assays; details: source organism: Sudan ebolavirus
HLA-B*15:01 [16] = experiment: as above; details: source organism: Sudan ebolavirus
HLA-A*02:01 [17] = experiment: as above; details: source organism: Sudan ebolavirus
HLA-B*46:01 [18] = experiment: IEDB peptide-MHC binding, purified MHC/competitive/fluorescence; filed as Kd, often an IC50 or EC50 that approximates it; ≥ and ≤ were set here for values at or beyond the usual limits of such assays; details: source organism: Sudan ebolavirus
HLA-A*69:01 [19] = experiment: as above; details: source organism: Sudan ebolavirus
HLA-B*27:03 [20] = experiment: as above; details: source organism: Sudan ebolavirus
HLA-B*39:01 [21] = experiment: as above; details: source organism: Sudan ebolavirus
HLA-B*57:01 [22] = experiment: as above; details: source organism: Sudan ebolavirus
[23] = source organism: Salmonella enterica subsp. enterica serovar Typhimurium str. LT2
[24] = source organism: Mycobacterium tuberculosis str. Haarlem
[25] = source organism: Yersinia pestis Nepal516
[26] = source organism: Salmonella enterica subsp. enterica serovar Typhi
[27] = source organism: Hantaan virus 76-118
[28] = source organism: Sudan ebolavirus

Question: With FKYDSTKPL as the sequence, how does the Kd (HLA-A*23:01) read?
Answer: Its Kd is no less than 20 µM.

Question: What about the Kd (HLA-A*68:02; [23]) of the same sequence?
Answer: The Kd was no less than 20 µM.

Question: What about the Kd (HLA-B*18:01; [23]) of the same sequence?
Answer: Its Kd is no less than 20 µM.

Question: What about the Kd (HLA-A*02:12; [23]) of the same sequence?
Answer: Its Kd is no less than 20 µM.

Question: What about the Kd (HLA-A*02:03; [23]) of the same sequence?
Answer: Its Kd is no less than 20 µM.

Question: And the Kd (HLA-B*46:01 [1]; [23])?
Answer: The Kd was no less than 20 µM.

Question: And the Kd (HLA-A*69:01 [2])?
Answer: Its Kd is no less than 20 µM.

Question: What about the Kd (HLA-A*02:16; [23]) of the same sequence?
Answer: Its Kd is no less than 20 µM.

Question: What about the Kd (HLA-B*27:03 [3]; [23]) of the same sequence?
Answer: Its Kd is no less than 20 µM.

Question: And the Kd (HLA-B*15:17)?
Answer: Its Kd is no less than 20 µM.

Question: And the Kd (HLA-B*51:01 [4]; [23])?
Answer: The Kd was no less than 20 µM.

Question: And the Kd (HLA-A*29:02; [23])?
Answer: Its Kd is no less than 20 µM.

Question: And the Kd (HLA-A*02:19; [23])?
Answer: The Kd was no less than 20 µM.

Question: What about the Kd (HLA-A*26:01; [23]) of the same sequence?
Answer: The Kd was no less than 20 µM.

Question: And the Kd (HLA-A*24:03; [23])?
Answer: Its Kd is no less than 20 µM.

Question: What about the Kd (HLA-B*57:01 [5]) of the same sequence?
Answer: Its Kd is no less than 20 µM.

Question: And the Kd (HLA-B*15:01 [6]; [23])?
Answer: The Kd was no less than 20 µM.

Question: What about the Kd (HLA-A*02:01 [7]; [23]) of the same sequence?
Answer: Its Kd is no less than 20 µM.

Question: What about the Kd (HLA-A*03:01 [8]; [23]) of the same sequence?
Answer: The Kd was no less than 20 µM.

Question: What about the Kd (HLA-A*02:11; [23]) of the same sequence?
Answer: The Kd was no less than 20 µM.

Question: With LAYARGQAM as the sequence, how does the Kd (HLA-C*03:03; source organism: Human herpesvirus 4 strain B95-8) read?
Answer: Its Kd is no more than 0.001 µM.

Question: For MAVTAAPYI, which Kd (HLA-B*18:01; [24]) is on record?
Answer: The Kd was no less than 20 µM.

Question: And the Kd (HLA-A*02:12; [24])?
Answer: Its Kd is no less than 20 µM.

Question: What about the Kd (HLA-A*02:03; [24]) of the same sequence?
Answer: Its Kd is no less than 20 µM.

Question: And the Kd (HLA-B*46:01 [1]; [24])?
Answer: The Kd was no less than 20 µM.

Question: And the Kd (HLA-A*02:16; [24])?
Answer: Its Kd is no less than 20 µM.

Question: What about the Kd (HLA-B*27:03 [3]; [24]) of the same sequence?
Answer: Its Kd is no less than 20 µM.

Question: And the Kd (HLA-B*39:01 [9])?
Answer: The Kd was no less than 20 µM.

Question: And the Kd (HLA-B*51:01 [4]; [24])?
Answer: The Kd was 0.103 µM.

Question: What about the Kd (HLA-A*29:02; [24]) of the same sequence?
Answer: Its Kd is no less than 20 µM.

Question: And the Kd (HLA-A*02:19; [24])?
Answer: Its Kd is no less than 20 µM.

Question: And the Kd (HLA-A*26:01; [24])?
Answer: The Kd was no less than 20 µM.

Question: And the Kd (HLA-A*24:03; [24])?
Answer: The Kd was no less than 20 µM.

Question: And the Kd (HLA-B*15:01 [6]; [24])?
Answer: Its Kd is no less than 20 µM.

Question: And the Kd (HLA-A*02:01 [7]; [24])?
Answer: The Kd was no less than 20 µM.

Question: And the Kd (HLA-A*03:01 [8]; [24])?
Answer: Its Kd is no less than 20 µM.

Question: And the Kd (HLA-A*02:11; [24])?
Answer: Its Kd is no less than 20 µM.

Question: For MTSELAALI, which Kd (HLA-B*58:01) is on record?
Answer: Its Kd is 0.0225 µM.

Question: What about the Kd (HLA-B*51:01 [10]; [25]) of the same sequence?
Answer: The Kd was no less than 20 µM.

Question: What about the Kd (HLA-A*01:01 [11]) of the same sequence?
Answer: Its Kd is no less than 20 µM.

Question: And the Kd (HLA-A*02:01 [12]; [25])?
Answer: The Kd was 0.0073 µM.

Question: What about the Kd (HLA-C*08:02; [25]) of the same sequence?
Answer: The Kd was 0.415 µM.

Question: What does the source list for STFDLYVYR?
Answer: Kd (HLA-B*45:06; [26]): ≥ 5 µM; Kd (HLA-A*31:01): 0.0243 µM; Kd (HLA-B*83:01): ≥ 5 µM; Kd (HLA-C*04:01; [26]): ≥ 5 µM; Kd (HLA-A*68:23): 0.0139 µM; Kd (HLA-B*15:01 [13]): ≥ 20 µM; Kd (HLA-A*03:01 [14]): 3.21 µM; Kd (HLA-B*15:42; [26]): ≥ 5 µM

Question: With TPGRYRTAV as the sequence, how does the Kd (HLA-B*45:06; [27]) read?
Answer: Its Kd is no less than 5 µM.

Question: What about the Kd (HLA-C*04:01; [27]) of the same sequence?
Answer: Its Kd is no less than 5 µM.

Question: What about the Kd (HLA-B*15:42; [27]) of the same sequence?
Answer: The Kd was no less than 5 µM.

Question: What about the Kd (HLA-B*51:01 [4]; source organism: Orthohantavirus hantanense) of the same sequence?
Answer: The Kd was no less than 20 µM.

Question: And the Kd (HLA-B*07:02)?
Answer: Its Kd is no more than 0.001 µM.

Question: Which Kd (HLA-C*03:03; source organism: Rickettsia sibirica 246) does the source give for YISPIFIPM here?
Answer: Its Kd is no more than 0.001 µM.

Question: Which IC50 (HLA-A*01:01 [15]) does the source give for YTENTSSYY here?
Answer: The IC50 was 0.927 µM.

Question: And the IC50 (HLA-B*15:01 [16])?
Answer: The IC50 was 23.1 µM.

Question: What about the IC50 (HLA-A*02:01 [17]) of the same sequence?
Answer: Its IC50 is no less than 213 µM.

Question: And the Kd (HLA-B*46:01 [18])?
Answer: The Kd was no less than 20 µM.

Question: And the Kd (HLA-A*69:01 [19])?
Answer: Its Kd is no less than 20 µM.

Question: What about the Kd (HLA-B*27:03 [20]) of the same sequence?
Answer: Its Kd is no less than 20 µM.

Question: What about the Kd (HLA-B*39:01 [21]) of the same sequence?
Answer: The Kd was no less than 20 µM.

Question: And the Kd (HLA-B*51:01 [10]; [28])?
Answer: The Kd was no less than 20 µM.

Question: What about the Kd (HLA-B*57:01 [22]) of the same sequence?
Answer: Its Kd is no less than 20 µM.

Question: And the Kd (HLA-A*02:01 [12]; [28])?
Answer: Its Kd is no less than 20 µM.

Question: And the Kd (HLA-A*68:02; [28])?
Answer: The Kd was no less than 20 µM.

Question: What about the Kd (HLA-A*02:12; [28]) of the same sequence?
Answer: The Kd was no less than 20 µM.

Question: And the Kd (HLA-A*02:03; [28])?
Answer: Its Kd is no less than 20 µM.

Question: And the Kd (HLA-A*02:16; [28])?
Answer: The Kd was no less than 20 µM.

Question: And the Kd (HLA-C*08:02; [28])?
Answer: Its Kd is no less than 20 µM.

Question: And the Kd (HLA-A*02:19; [28])?
Answer: The Kd was no less than 20 µM.

Question: What about the Kd (HLA-A*26:01; source organism: Sudan virus - Boniface, Sudan,1976) of the same sequence?
Answer: The Kd was 0.007 µM.

Question: What about the Kd (HLA-A*24:03; [28]) of the same sequence?
Answer: Its Kd is no less than 20 µM.

Question: What about the Kd (HLA-A*03:01 [8]; [28]) of the same sequence?
Answer: The Kd was no less than 20 µM.

Question: What about the Kd (HLA-A*02:11; [28]) of the same sequence?
Answer: Its Kd is no less than 20 µM.
